B1: anti-CD30 mAb 12B1 (antibody, V domains shown)
VH: EVKLEESGTELVKPGASVKLSCKASGYTFTSYWMHWVKQRPGQGLEWIGNINPTNGGTNYNEKFKSKATLTVDKSSRTAYMQLSSLTSGDSAVYYCARRDFITTSGFAYWGQGTLVTVSA
VL: DIVMTQTTASLSTSVGETVTITCRASGNLHSYLTWYQQKQGKSPQLLVYNAKTLADGVPSRFSGSGSGTQYSLKIDSLQPEDFGSYYCQHFWTTPFTFGSGTKLEIK
notes: also called clone 12B1; source: mouse hybridoma (custom generated by Genscript), serum-free supernatant, purified (rProtein A GraviTrap)
B2: anti-CD30 mAb 15B8 (antibody, V domains shown)
VH: QVQLEQSGTELVKPGASVKLSCKASGYTFTSYWMHWVKQRPGQGLEWIGNINPSNGGTNYNEKFKSKATLTVDKSSSTAYMQLSSLTSEDSAIYYCARRNNYYASSPFAYWGQGTLVSVSA
VL: DIVMTQTPASLSASVGETVTITCRASGNIHNYLAWYQQKQGKSPQLLVYNAKTLADGVPSRFSGSGSGTQYSLKINSLQPEDFGSYYCQHFWSTPFTFGSGTKLEIK
notes: also called clone 15B8; source: mouse hybridoma (custom generated by Genscript), serum-free supernatant, purified (rProtein A GraviTrap)
B3: anti-CD30 mAb 8D10 (antibody, V domains shown)
VH: QVQLQESGTELVKPGASVKLSCKASGYTFTSYWMHWMKQRPGQGLEWIGNINPSNGGTNYNEKFKNKATLTVDKSSSTAYMQLSSLTSEDSAVYYCARRDYYYGSSYGFDVWGTGTTVTVSS
VL: DIVMTQSPASQSASLGESVTITCLASQTIGTWLAWYQQKPGKSPQFLIYAATSLADGVPSRFSGSGSGTKFSFKISSLQAEDFVSYYCQQLYSTPFTFGGGTKLEIK
notes: also called clone 8D10; source: mouse hybridoma (custom generated by Genscript), serum-free supernatant, purified (rProtein A GraviTrap)
B4: anti-CD30 mAb 10C2 (antibody, V domains shown)
VH: QVQLEQSGPVLVKPGASVKMSCKASGYTFTDYYMNWVKQSHGKSLEWIGVINPYNGGTSYNQKFKGKATLTVDKSSSTACMELNCLTSEDSAVYYCTLGAYWGQGTSVTVSS
VL: not shown
notes: also called clone 10C2; source: mouse hybridoma (custom generated by Genscript), serum-free supernatant, purified (rProtein A GraviTrap)
B5: anti-CD30 mAb 13H1 (antibody, V domains shown)
VH: QVQLQQSGTELVKPGASVKLSCKASGHTFTSYWMHWVKQRPGQGLEWIGNINPSNGGTNYNEKFKSKATLTVDKSSSTAYMQLSSLTSEDSAVYYCARRGYYGSSSYWSFDVWGTGTTVTVSS
VL: DIVMTQTPKSMSMSVGERVTLSCKASENVGTYVSWYQQKPEQSPKVLIYGASNRFTGVPDRFTGSGSATDFTLTISSVQTEDLADYHCGQSYSYPLTFGAGTKLELK
notes: also called clone 13H1; source: mouse hybridoma (custom generated by Genscript), serum-free supernatant, purified (rProtein A GraviTrap)
B6: anti-CD30 mAb 8D10 (antibody, V domains shown)
VH: QVQLQESGTELVKPGASVKLSCKASGYTFTSYWMHWMKQRPGQGLEWIGNINPSNGGTNYNEKFKNKATLTVDKSSSTAYMQLSSLTSEDSAVYYCARRDYYYGSSYGFDVWGTGTTVTVSS
VL: DIVMTQSPASQSASLGESVTITCLASQTIGTWLAWYQQKPGKSPQFLIYAATSLADGVPSRFSGSGSGTKFSFKISSLQAEDFVSYYCQQLYSTPFTFGGGTKLEIK
notes: IgG2a constant part; kappa light chain; source: mouse hybridoma supernatant (serum-free medium), purified on rProtein A GraviTrap column
B7: anti-CD30 mAb 10C2 (antibody, V domains shown)
VH: QVQLEQSGPVLVKPGASVKMSCKASGYTFTDYYMNWVKQSHGKSLEWIGVINPYNGGTSYNQKFKGKATLTVDKSSSTACMELNCLTSEDSAVYYCTLGAYWGQGTSVTVSS
VL: not shown
notes: as for B6

These binders were tested against T1, recombinant huCD30 (R&D) (Homo sapiens, UniProt P28908) (assay: SPR; BIAcore 3000, 25°C; recombinant huCD30 amine-coupled on a CM5 chip; mAbs as analyte in serial 1:2 dilutions from 20 nM; 10 mM Hepes pH 7.4, 150 mM NaCl, 0.005% P20, 0.1% BSA; 1:1 Langmuir fit). Conditions: both partners purified.
T1 construct: recombinant human CD30 from R&D; also called rhCD30; huCD30 protein; source: bought: R&D
T1 sequence (P28908 19-385): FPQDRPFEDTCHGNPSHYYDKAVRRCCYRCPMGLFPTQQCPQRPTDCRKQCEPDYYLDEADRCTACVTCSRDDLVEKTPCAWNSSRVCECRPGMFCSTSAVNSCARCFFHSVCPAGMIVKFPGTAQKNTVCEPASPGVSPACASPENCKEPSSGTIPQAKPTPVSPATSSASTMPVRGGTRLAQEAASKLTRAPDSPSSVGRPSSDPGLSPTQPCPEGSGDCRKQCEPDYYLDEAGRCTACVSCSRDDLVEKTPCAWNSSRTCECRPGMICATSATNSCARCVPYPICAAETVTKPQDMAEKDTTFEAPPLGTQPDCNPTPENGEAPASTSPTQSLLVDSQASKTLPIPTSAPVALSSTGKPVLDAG

Question: With B1 as the binder, how does the Ka read?
Answer: 5.02e+09 M⁻¹

Question: What about the Kd of the same binder?
Answer: 0.199 nM

Question: And the koff?
Answer: 1.22e-05 s⁻¹

Question: And the kon?
Answer: 61300 M⁻¹ s⁻¹

Question: Which results are given for B2?
Answer: Ka: 1.02e+09 M⁻¹; Kd: 0.978 nM; koff: 0.000493 s⁻¹; kon: 504000 M⁻¹ s⁻¹

Question: How did the Ka turn out when B3 was run?
Answer: 1.69e+10 M⁻¹

Question: What about the Kd of the same binder?
Answer: 0.0592 nM

Question: And the koff?
Answer: 6e-06 s⁻¹

Question: And the kon?
Answer: 101000 M⁻¹ s⁻¹

Question: What does the source list for B4?
Answer: Ka: 1.65e+09 M⁻¹; Kd: 0.607 nM; koff: 0.000186 s⁻¹; kon: 307000 M⁻¹ s⁻¹

Question: For B5, which Ka is on record?
Answer: 6.7e+09 M⁻¹

Question: What about the Kd of the same binder?
Answer: 0.149 nM

Question: And the koff?
Answer: 0.000106 s⁻¹

Question: And the kon?
Answer: 708000 M⁻¹ s⁻¹

The binders below were run against T2, Recombinant huCD30 (Homo sapiens, UniProt P28908) (assay: SPR; mAbs (5 ng/ul) immobilized on a Protein G sensor chip at about 200 RU; rhCD30 as analyte (0-2500 nM for the 8D10 and 10C2 flow cells), 2 min at 40 ul/min, 3 min dissociation; 25°C; 10 mM Hepes pH 7.4, 150 mM NaCl, 0.005% P20; BIAcore 3000; 1:1 Langmuir fit). Conditions: both partners purified.
T2 construct: human CD30 (TNFRSF8), recombinant protein from R&D; also called rhCD30; huCD30 protein; source: bought: R&D
T2 sequence (P28908 19-385): as above

Question: B6 was tested. Which Ka did it give?
Answer: 878000 M⁻¹

Question: And the Kd?
Answer: 1140 nM

Question: What about the koff of the same binder?
Answer: 0.00523 s⁻¹

Question: What about the kon of the same binder?
Answer: 4530 M⁻¹ s⁻¹

Question: With B7 as the binder, how does the Ka read?
Answer: 579000 M⁻¹

Question: And the Kd?
Answer: 1760 nM

Question: And the koff?
Answer: 0.0101 s⁻¹

Question: What about the kon of the same binder?
Answer: 5880 M⁻¹ s⁻¹
